Laboratory results: article PMC8944867

Target: HOIP UBA-RBR-LDD/HOIL-1L UBL complex (human) (UniProt Q96EP0)
Test: ITC

HOIP UBA-RBR-LDD/HOIL-1L UBL complex (human), sequence (Q96EP0 whole entry, chain 1 of 2): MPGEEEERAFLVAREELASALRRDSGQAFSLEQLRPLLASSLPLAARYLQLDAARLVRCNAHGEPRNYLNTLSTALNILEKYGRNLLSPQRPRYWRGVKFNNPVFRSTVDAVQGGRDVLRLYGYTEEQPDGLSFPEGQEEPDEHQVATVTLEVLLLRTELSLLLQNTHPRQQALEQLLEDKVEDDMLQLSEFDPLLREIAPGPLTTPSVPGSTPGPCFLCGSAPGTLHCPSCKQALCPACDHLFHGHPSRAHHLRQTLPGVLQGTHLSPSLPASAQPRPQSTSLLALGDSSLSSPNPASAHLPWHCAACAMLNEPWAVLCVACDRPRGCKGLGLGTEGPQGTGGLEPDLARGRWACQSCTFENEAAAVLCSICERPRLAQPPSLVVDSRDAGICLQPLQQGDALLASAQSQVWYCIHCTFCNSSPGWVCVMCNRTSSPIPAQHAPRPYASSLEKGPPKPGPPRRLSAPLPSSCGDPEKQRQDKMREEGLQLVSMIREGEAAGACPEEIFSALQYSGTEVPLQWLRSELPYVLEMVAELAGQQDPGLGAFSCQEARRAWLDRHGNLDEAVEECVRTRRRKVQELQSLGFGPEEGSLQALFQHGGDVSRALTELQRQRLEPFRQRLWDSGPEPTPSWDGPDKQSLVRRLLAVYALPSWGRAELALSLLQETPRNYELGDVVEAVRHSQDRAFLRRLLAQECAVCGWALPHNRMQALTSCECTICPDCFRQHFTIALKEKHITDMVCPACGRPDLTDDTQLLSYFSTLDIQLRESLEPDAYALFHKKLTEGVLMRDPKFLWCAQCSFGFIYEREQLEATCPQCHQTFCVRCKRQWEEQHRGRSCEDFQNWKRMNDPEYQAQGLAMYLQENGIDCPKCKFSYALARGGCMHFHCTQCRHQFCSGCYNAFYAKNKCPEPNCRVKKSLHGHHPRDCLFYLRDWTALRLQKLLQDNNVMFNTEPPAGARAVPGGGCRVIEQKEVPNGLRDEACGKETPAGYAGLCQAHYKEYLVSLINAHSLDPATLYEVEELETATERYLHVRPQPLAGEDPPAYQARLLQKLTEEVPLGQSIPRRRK
HOIP UBA-RBR-LDD/HOIL-1L UBL complex (human), sequence (Q9BYM8 53-135, chain 2 of 2, further chain): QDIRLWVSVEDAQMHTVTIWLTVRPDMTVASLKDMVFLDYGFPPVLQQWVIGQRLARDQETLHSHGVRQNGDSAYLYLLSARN

“IpaH1.4 LRR domain (from UniProt A0A0H2USG1 38-283) (domain or fragment)” showed a Kd of 2300 nM.
